Test results: the nanobody polyreactivity screen of Harvey et al. (2022)

Assay: yeast display, Sf9 membrane polyspecificity reagent, FACS + sequencing; frameworks hold sequencing errors
Summary of the method: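 Genes from sorted yeast were amplified by colony PCR, read by MiSeq 2 × 250 sequencing and filtered on CDR length. These cells carried a synthetic nanobody library in Saccharomyces cerevisiae BJ5465 and were sorted by FACS into low and high (top ~1%) gates on anti-HA and streptavidin fluorescence. Polyreactivity is labelled according to the gate of origin.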

Sequence	polyreactivity (PSR sort gate)
QVQLVESGRGLVQAGGSLRLSCHASGFTFSPYTMGWSRQAPGKERELVATIRYDCTSTYYADSVKGRFTISRDNAKNTVYLQMNSLKPEDTAVYYCAADIWRVYSTFYYWGQGTEVTVSS	low polyreactivity
QVQLVESGRGLVQAGGSLSLSCAASGITFGNYAMGWYRQAPGKERELVAAITGSGGRTYYADSVKVRFTISRDNAKNTVYLQMNSLKPEDTAVYDCAAKQYTRFGYYYWGQGTQLTVSS	high polyreactivity
QVQLVESGRGLVQEGGSLRLSCAPSGSTFYRFAMGWYRQAPGKERELVAAISASGGSTYYADSVKGRFTISRDNAKYTVYLQMNSLKPEDTEVYYCNRDRRYRNDYWGQGTQVTVST	high polyreactivity
QVQLVESGRGLVQEGGSLRLSCASSGSTFKVYAMGWYRQAPGKERELVAAISQSGGSTYYADSVKGRFTISRDNAKNTVYIQMNSLKPEDTAVYYCAVRTYVYNWSFSSLPYDYWGQGTQVTVSS	high polyreactivity
QVQLVESGRRLVQAGGSLRLSCAASGINFDSYAMGWYRQAPGKERELVAAITSDSGRTYYADSVTGRFTISRDNAKNTVYLQMNSVKPEDTPVYYCAKRWDGPYDYWGQGTQVTVSS	low polyreactivity
QVQLVESGRRLVQAGGSLRLSCAASGSIFIPNVMGWYRQAPRKERELVASIRSNGGTNYADSVKGRFTISRDNAKNTVYLQMNSLKPEDTAVYNCAAKRWSYRHGFDYLGQGTQVTVSS	high polyreactivity
QVQLVESGSGLVQAGGSLRLSCAHSGFTVSYYVMGWYRQAPGKERELVAAISWSGGSTYYADSVKGRFTISLDNAKNTVYLQMNSLKPEDTAFYYCNADDWRDDYEYWGQGTQVTVSS	high polyreactivity
QVQLVESGVGIVQAGCSLRLSCAASGSIFRYYAMGLYRQAPGKERELVAGITASTGRTYYADSVKGRFTISRDNAKNTVYLQMNSLKPEDTAVYYCAARSRYYEYDYWGQGTQVTVSS	low polyreactivity
QVQLVESGVGIVQAGRSHRVSCAASGSTYNPYAMGWYRQAPGKESELVARIRGSGGSTYYADSVKVRFTISRDNAKNPVFLHMNSQKPEDTAVYYCATDDYYLSRYRLVGYYSWGQGTQVTVSS	high polyreactivity
QVQLVESGVGLDQARGSLRLSCAASGITFDDYAMGWYRQAPGKERELVAAISVSGGDTYYADSVKGRFTISRDNAKNTVYLQMNSLKPEDSAVYYCAAEEVSPRWYEYWGQGTQVTVSS	low polyreactivity
QVQLVESGVGLDQARVSLRLSCAASGFTFGQYVMGWYRQAPGKEREFVAIISRSVDSTYYADSVKGRFTISRDNAKNTVYLQMNSLNPEDTAVYYCNARGKRRGKIPYSSYASSYDSWGQGTQVTVSS	high polyreactivity
QVQLVESGVGLGQAGGSLRLSCAASGRIFSRYAMGWYRPAPGKERELVATITRRGGSTSYADSVKGRFTISRDNAKNTVFLQMNCLKPEDTAVYYCAAQSFYGIYYGKQDYDYWGQGTQVTVSS	high polyreactivity
QVQLVESGVGLLQAGGSLRISCAASGSIFFDNSMGRYRQAPGKERELVAAITWSGSRTYYADSVKGRFTISRDNAKNTVYLQMNSLKPEDTAVYYSNAVYWWYWALFTVGRYDYWGQGTQVTVSS	high polyreactivity
QVQLVESGVGLVKAGGSLRLSCAASGSTFNGYGMGWYRQAPGKERELVAAMSWSGGSTYYADSVKGRFTISRDNAKNTGYLLMNSLKPEDTAVYYCAALTHYGGYGYTYDYWGQGTQVTVSS	low polyreactivity
QVQLVESGVGLVQAGCSHRLSCAASGSTISAYDMGSYRQAPGKERELVAAITWIGGNTYYADSVKGRFTISRDNAKNTVYLQMNSLKPEDTAVYYCAAEEVPYDRDMDYWGQGTQVTVSS	low polyreactivity
QVQLVESGVGLVQAGGRLRLICAASGITFGPNALGWYRQAPGKERELVAAISWRGGSTYNADSVKGRFTISRDNGKNTVYLQMNSLKPEDTAVYYCAADLAYGAMVYWGQGTQVTVSS	low polyreactivity

Sequence	polyreactivity (PSR sort gate)
QVQLVESGVGLVQAGGRLRLSCAASGSIFASSAMGWYRKAPGKERELVAVINSYDRTNYADSVKGRFTISRDNAKNTVYLKMNSLKPEDTAVYYCNADAIRIIPAYDYWGQGTQVTVSS	low polyreactivity
QVQLVESGVGLVQAGGSHPLSCAASGSTLRYAMGWNRQAPGKETELVAAISRTGGSTYYADSVKGRFTISRDNAKNTVYLQMNSLKPEDPAVYYCAARYFTSYPLYYYWGQGTQVTVSS	high polyreactivity
QVQLVESGVGLVQAGGSLRLICAASGRNFRTNAMGWYRQAPGKERELVAAISTGGGITKYADSVKGRFTISRDNSKNTVYLQMNSLKPEDTAVYYCAADAVNTLDYWGQGTQVTVSS	low polyreactivity
QVQLVESGVGLVQAGGSLRLICAASGSTFAYNDMGWYRQAPGKERELVAAINGGGGSTYYGDSVKGRFTISRDNAKNTVYLHMNSLKPEVTAVYYCAKGEWSYVDSFGPYYDLVYWGQGTQVTVSS	low polyreactivity
QVQLVESGVGLVQAGGSLRLICGASGFTFDYNSMVWYRQAPGKERELVAAISASGGSTYYADSVKGRFTISRDNAKNTVYLQMKSLKPEDTAVYYCNAGRVTRRDTFDYWGQGTQVTVSS	high polyreactivity
QVQLVESGVGLVQAGGSLRLRCAASGFIFIHNAMGWYRQAPGKERELVAAISYSGGSTYYADSVKGRFTISRDTAKNTVYLQMNSLKPEDTAVYFCNRVQYYRADRMDYWGQGTQVTVSS	low polyreactivity
QVQLVESGVGLVQAGGSLRLSCAAAGYIFFFYAMGWYRQAPGKERELVASITYRGGSTYYADSVKGRFTISRDNAKNTVYLHMNSLKPEDTAVYYCNVDGGGPLGPQGFPFDYWGQGTQVTVSS	low polyreactivity
QVQLVESGVGLVQAGGSLRLSCAASASTFYGYTMGWNRQAPGKERELVAAITSTGRTYYADSVKGRFTISRDNAKNTVYLQMNSLKPEDTAVYYCAKKSSARRYDYDYWGQGTQVTVSS	high polyreactivity
QVQLVESGVGLVQAGGSLRLSCAASGFIFPTNTMGWYRQAPGKEREFVARITRSGTNTYYADSVKGRFTISRDNAKNTVYLQMNSLKPEDTAVYYCATRYYHFNYWGQATQVTVSS	high polyreactivity
QVQLVESGVGLVQAGGSLRLSCAASGFIFYYYAMGWYRQAPGKERELVAAISTDGGSTYYADSVKGRFTISRDNAKNTVYLQMNSLKPEDTAVYYCNAPYYGWGYWPLEYIRYEYWGQGTQVTVST	low polyreactivity
QVQLVESGVGLVQAGGSLRLSCAASGFLFKYNAMGWYRQAPAKERELVAAISWSGSRTYYADSVKGRFTISRDNAKNTVYLQMNSLKPEDTAVYYCNAVSWRTSRYDYWGQGTQVTVSS	high polyreactivity
QVQLVESGVGLVQAGGSLRLSCAASGFTFPYYAMGWYIQAPGKERELVAAISSGGRTNYADSVKGRFTISRDNAKNTVYLQMNSLKPEDTAVYDCATRSYVFAWEFNYWGQVTQVTVSS	high polyreactivity
QVQLVESGVGLVQAGGSLRLSCAASGFTFQYYAMGWYRQAPGKERELVAAITRGDSTNYADSVKGRFTISRDNAKNTVYLQMNSLKPEDTAVYYCAAGSAPSYWGGWYYERDYWGQGTQVTVSS	low polyreactivity
QVQLVESGVGLVQAGGSLRLSCAASGFTLGRNAMGWYRQAPGKERELVASISGRGGSSYYADSVKGRFTISRDNAKNSVYLQMNSLKPEDTAVYYCAARGVSGKYYYWGQGTQVTVSS	high polyreactivity
QVQLVESGVGLVQAGGSLRLSCAASGGIFFYYAMGWSRQAPGKERELVAAISYSGGSTYYADSVKGRFTISRDNAKHTVYLQMNSVKPDDTAVNYCAAVPDYYEYSPYDYWGQGTQVTVSS	low polyreactivity
QVQLVESGVGLVQAGGSLRLSCAASGGTFVTYAMGWFSQAPGKERELVAAISATDGRTYNADSVKGRFTISRDNAKNTVYLQMNSLKPADTAVYYCAAVGPYTQSRGKYSNLFYWGQGTQVTVSS	high polyreactivity
